Biological target: T1, Aβ40 synthetic peptide (human, UniProt P05067 672-711)
T1 construct: β amyloid, the isoform ending at the 40th amino acid (Aβ40), cut product of the amyloid precursor protein; numbers count on: the Aβ peptide; Pre-incubated at 16.2 uM at 37 C for 2 h before mixing 1:1 (volume) with amylin and incubating 24 h at 37 C; also called β amyloid; human Aβ40; source: synthetic peptide; bought: Anaspec (AS-24235)
Test: ELISA; amylin-Aβ sandwich ELISA on solutions of peptides co-incubated at 37 C for 24 h in PBS with 0.05% sodium azide (30 uM amylin and 16.2 uM Aβ mixed 1:1); capture by the polyclonal anti-amylin P2 antibody, detection by an HRP-conjugated anti-Aβ antibody
Conditions: both partners purified

B1: human amylin synthetic peptide (peptide, UniProt P10997 34-70, looked up)
peptide: KCNTATCATQRLANFLVHSSNNFGAILSSTNVGSNTY
notes: Amylin (islet amyloid polypeptide), human, synthetic peptide; Pre-incubated at 30 uM in PBS with 0.05% sodium azide at 37 C for 5 h before mixing with Aβ40; also called islet amyloid polypeptide; source: synthetic peptide; bought: Anaspec (AS-60254-1)
  binding result: binds

— article PMC10192925, “Rapid, scalable assay of amylin-β amyloid co-aggregation in brain tissue and blood” (The Journal of Biological Chemistry, 2023)
